Our source for the Km values is publication PMC3893156.

One may read the Km as the substrate concentration at which the rate is half of its maximum.

Changes are numbered by the printed parent chain. In names and notes the source's numbering stands.

Substrate in series [1]: O=P(O)(O)O[C@H]1O[C@H](CO)[C@@H](O)[C@H](O)[C@@H]1O
Briefly: Michaelis-Menten kinetics of purified enzyme. It is filed as biochemical, Homo sapiens. The following applies: Mg2+; Man-1,6-P2 activator.

Substrate in series [2]: O=P(O)(O)O[C@H]1O[C@H](CO)[C@@H](O)[C@H](O)[C@H]1O
The series is described as follows: Michaelis-Menten kinetics of purified enzyme. Conditions: Mg2+; Glc-1,6-P2 activator. It is filed as biochemical, Homo sapiens.

B1: Phosphomannomutase 2 (wt-PMM2) (Homo sapiens) (protein)
chain: MAAPGPALCLFDVDGTLTAPRQKITKEMDDFLQKLRQKIKIGVVGGSDFEKVQEQLGNDVVEKYDYVFPENGLVAYKDGKLLCRQNIQSHLGEALIQDLINYCLSYIAKIKLPKKRGTFIEFRNGMLNVSPIGRSCSQEERIEFYELDKKENIRQKFVADLRKEFAGKGLTFSIGGQISFDVFPDGWDKRYCLRHVENDGYKTIYFFGDKTMPGGNDHEIFTDPRTMGYSVTAPEDTRRICELLFS
Regarding B1, the Michaelis constant (Km) in series [1] turned out to be 16.0 ± 1.5 µM; in series [2], 8.2 ± 1.4 µM.

B2: Phosphomannomutase 2 (F119L-PMM2) (Homo sapiens; F119L) (protein)
chain: B1 chain with F119L
With B2, the Km was 11.8 ± 1.0 µM in series [1] and 15.5 ± 1.6 µM in series [2].
